In this test the target is T1, human TIGIT (human, UniProt Q495A1 22-141).
T1 construct: also called hTIGIT
T1 sequence (looked up): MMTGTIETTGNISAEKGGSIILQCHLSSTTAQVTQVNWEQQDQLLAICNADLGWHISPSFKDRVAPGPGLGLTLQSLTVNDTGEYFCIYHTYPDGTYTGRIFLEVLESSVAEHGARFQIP
Nature of the test: SPR, captured by anti-human Fc, hTIGIT analyte. The text has this: The sensorgrams for reference channel Fc1 and buffer channel were subtracted from the test sensorgrams.
(In general: SPR reads the build-up and loss of mass on a sensor chip optically.)

Usually Kd stands for the equilibrium constant for the complex coming apart. A lower Kd goes with a tighter complex.

B1: Tiragolumab (antibody, human IgG1, kappa, V domains shown)
VH: EVQLQQSGPGLVKPSQTLSLTCAISGDSVSSNSAAWNWIRQSPSRGLEWLGKTYYRFKWYSDYAVSVKGRITINPDTSKNQFSLQLNSVTPEDTAVFYCTRESTTYDLLAGPFDYWGQGTLVTVSS
VL: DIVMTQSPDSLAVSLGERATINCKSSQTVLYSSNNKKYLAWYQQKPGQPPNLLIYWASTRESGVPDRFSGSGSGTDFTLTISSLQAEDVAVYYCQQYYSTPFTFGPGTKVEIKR
notes: also called anti-TIGIT antibody; control antibody
B1 registered a Kd of 0.0595 nM. In other words, the picomolar range.

(Values after patent US20230136331A1 (ILDONG PHARMACEUTICAL, published 2023).)
